Measurements taken from patent publication US20240010735A1 (EISAI R AND D MANAGEMENT, published 2024).

Key:
Test in all cases: ELISA: Fc-His proteins (1 nM) captured on anti-6-His antibody, antibody A 10 µg/mL with human IgG 100 µg/mL, HRP anti-mouse IgG, OD450 as % of mouse EphA4-Fc-His
[1] = molecular target: T1, mouse EphA3 extracellular region-Fc-His protein (mouse; human, UniProt P29319 21-540)
T1 construct: extracellular domain; not shown: Fc region of human IgG1; histidine tag
T1 sequence (looked up): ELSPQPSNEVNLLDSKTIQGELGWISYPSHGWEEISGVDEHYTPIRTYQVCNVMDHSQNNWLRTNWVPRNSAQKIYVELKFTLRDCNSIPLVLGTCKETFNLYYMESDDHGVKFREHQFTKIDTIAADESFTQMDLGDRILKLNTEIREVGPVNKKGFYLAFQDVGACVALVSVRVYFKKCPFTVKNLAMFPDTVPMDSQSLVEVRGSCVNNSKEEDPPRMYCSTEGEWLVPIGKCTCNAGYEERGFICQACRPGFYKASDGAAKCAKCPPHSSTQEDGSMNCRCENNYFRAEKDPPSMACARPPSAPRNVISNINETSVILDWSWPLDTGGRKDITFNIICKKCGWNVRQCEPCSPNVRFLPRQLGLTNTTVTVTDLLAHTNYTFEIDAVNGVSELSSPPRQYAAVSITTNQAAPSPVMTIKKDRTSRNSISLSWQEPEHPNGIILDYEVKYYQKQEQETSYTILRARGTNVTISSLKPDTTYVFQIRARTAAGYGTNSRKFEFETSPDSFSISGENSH
Protocol: (§1) Rabbit anti-6-His antibodies (Bethyl Laboratories) were coated onto the wells of a 96-well plate (Nunc). After incubating at 4° C. overnight, the wells were blocked at room temperature for 1 hour by 1% Block Ace (DS Pharma Biomedical). After washing 3 times with 0.05% Tween 20/PBS (Thermo […]), each Eph receptor of mouse extracellular region-Fc-His protein (final concentration 1 nM) was seeded into each well, and incubated at room temperature for 1 hour. After washing 3 times, human IgG solution (100 μg/mL, Sigma) and antibody A (10 μg/mL) were supplemented to the wells, and incubated at room temperature for 1 hour. Horseradish peroxidase-labeled donkey anti-mouse IgG antibody (Jackson ImmunoResearch Laboratories) was added, and incubated at room temperature for 1 hour. After washing 3 times, TMBZ (3,3′,5,5′-tetramethylbenzidine, Sigma) solution was added to the wells, and upon confirmation of modest coloring, an equal amount of quenching solution (1 N H₂SO₄, Wako Pure Chemicals) was added to the wells, and absorbance at 450 nm was read by a microplate reader (PerkinElmer).

[2] = molecular target: T2, mouse EphB4 extracellular region-Fc-His protein (mouse; human, UniProt P54761 16-539)
T2 construct: extracellular domain; not shown: Fc region of human IgG1; histidine tag
T2 sequence (looked up): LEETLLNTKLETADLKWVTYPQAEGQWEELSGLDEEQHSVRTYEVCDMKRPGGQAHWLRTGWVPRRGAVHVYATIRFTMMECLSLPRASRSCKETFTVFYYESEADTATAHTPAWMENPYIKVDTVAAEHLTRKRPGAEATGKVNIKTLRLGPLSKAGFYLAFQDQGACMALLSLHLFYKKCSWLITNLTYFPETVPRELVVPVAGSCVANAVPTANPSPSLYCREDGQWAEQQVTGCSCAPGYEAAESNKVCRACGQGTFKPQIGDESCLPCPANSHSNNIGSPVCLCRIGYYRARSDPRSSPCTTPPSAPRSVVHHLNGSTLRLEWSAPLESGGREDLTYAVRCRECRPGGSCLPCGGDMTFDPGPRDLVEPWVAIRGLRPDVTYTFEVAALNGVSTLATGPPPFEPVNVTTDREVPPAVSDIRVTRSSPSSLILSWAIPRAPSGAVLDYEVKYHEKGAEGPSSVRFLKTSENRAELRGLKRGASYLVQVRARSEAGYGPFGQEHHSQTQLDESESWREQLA
Protocol: as §1

[3] = molecular target: T3, mouse EphA7 extracellular region-Fc-His protein (mouse; human, UniProt Q61772 28-555)
T3 construct: extracellular domain; not shown: Fc region of human IgG1; histidine tag
T3 sequence (looked up): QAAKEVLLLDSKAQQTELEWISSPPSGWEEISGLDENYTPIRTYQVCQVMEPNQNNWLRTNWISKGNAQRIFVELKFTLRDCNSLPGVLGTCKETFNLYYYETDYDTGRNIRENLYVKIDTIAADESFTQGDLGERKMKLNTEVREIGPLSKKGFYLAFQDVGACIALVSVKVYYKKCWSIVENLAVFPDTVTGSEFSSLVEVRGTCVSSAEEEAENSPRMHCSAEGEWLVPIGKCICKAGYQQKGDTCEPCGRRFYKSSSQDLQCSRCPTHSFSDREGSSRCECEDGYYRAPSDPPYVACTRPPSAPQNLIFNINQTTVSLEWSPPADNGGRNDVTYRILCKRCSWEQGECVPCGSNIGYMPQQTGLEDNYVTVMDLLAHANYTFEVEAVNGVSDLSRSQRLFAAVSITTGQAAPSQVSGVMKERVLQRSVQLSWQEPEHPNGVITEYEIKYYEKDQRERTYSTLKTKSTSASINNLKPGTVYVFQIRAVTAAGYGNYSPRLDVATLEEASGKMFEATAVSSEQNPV
Protocol: as §1

Measured: binding result

B1: mouse anti-EphA4 monoclonal antibody (antibody A) (antibody, mouse IgG1, kappa, V domains shown)
VH: QVQLKQSGPSLVQPSQSLSITCTVSGFSLTRYGVHWVRQSPGKGLEWLGVIWRGGSTDYNAAFMSRLSITKDNSKSQVFFKMNSLQADDTAIYYCAKESLFGVYYDYGYYSMDYWGQGTSVTVSS
VL: DIQMTQSPSSLSASLGERVSLTCRASQEISGYLSWLQQKPDGTIKRLIYAASTLDSGVPKRFSGSRSGSDYSLTISSLESEDFADYYCLQYASYPLTFGAGTKLELKR
notes: purified from hybridoma supernatant
no binding (tested: 10 µg/mL): all assays above
